Experimental data: patent US20260092093A1 (TJ BIOPHARMA SHANGHAI, published 2026)

T1: hIL-18Rα ECD-Fc fusion protein (human, UniProt Q13478 22-329)
T1 construct: extracellular domain; captured on Protein A sensor
T1 sequence (looked up): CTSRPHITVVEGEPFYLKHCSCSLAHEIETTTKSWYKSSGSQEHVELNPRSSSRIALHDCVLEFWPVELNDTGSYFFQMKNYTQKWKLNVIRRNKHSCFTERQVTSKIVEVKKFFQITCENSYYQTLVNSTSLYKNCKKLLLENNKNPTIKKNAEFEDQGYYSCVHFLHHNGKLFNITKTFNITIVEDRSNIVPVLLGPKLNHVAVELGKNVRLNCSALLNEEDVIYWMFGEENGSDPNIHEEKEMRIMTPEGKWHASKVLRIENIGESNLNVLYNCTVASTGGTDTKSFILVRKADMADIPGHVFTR

T2: recombinant hIL-18Rα extracellular domain (human, UniProt Q13478 22-329, biotin label (selection) or fluorescent probe (single-clone FACS), sites not given)
T2 construct: extracellular domain; also called hIL-18Rα ECD; hIL-18Rα-ECD
T2 sequence (looked up): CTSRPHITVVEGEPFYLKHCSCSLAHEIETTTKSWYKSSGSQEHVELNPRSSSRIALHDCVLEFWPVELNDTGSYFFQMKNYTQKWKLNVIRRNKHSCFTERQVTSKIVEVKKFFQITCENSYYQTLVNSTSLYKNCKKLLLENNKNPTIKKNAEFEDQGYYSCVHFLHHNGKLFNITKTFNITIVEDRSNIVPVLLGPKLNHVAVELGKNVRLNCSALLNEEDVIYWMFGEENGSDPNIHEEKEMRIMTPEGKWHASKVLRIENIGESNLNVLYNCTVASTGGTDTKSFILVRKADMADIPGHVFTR


biological target: T1, hIL-18Rα ECD-Fc fusion protein; assay: BLI (Octet RED96), hIL-18Rα ECD-Fc on Protein A sensor
Experimental: The affinities of IL-18 variant polypeptides for hIL-18Rα were assessed by Biolayer Interferometry (BLI) on Octet RED96 using Protein A sensor coated with hIL-18Rα ECD-Fc fusion protein, and WT hIL-18 was used as a control.

Kd	Response (nm)	koff	kon	Binder
86.2 nM	0.0618 nm	0.047 s⁻¹	545000 M⁻¹ s⁻¹	IL-18 variant polypeptide LM1 (ligand, soluble, E. coli-made) YFPKLKSKLSVIRNLNDQVLFIDQGNRPLFEDMTDSDCRDNAPRTIFIISMYKGSGARGMAVTISVKCEKISTLSCENKIISFKEMNPPDNIKDTKSDIIFFQRSVPGHDNKMQFESSSYEGYFLACEKERDLFKLILKKEDELGDRSIMFTVQNED
104 nM	0.0326 nm	0.077 s⁻¹	743000 M⁻¹ s⁻¹	IL-18 variant polypeptide MM5 (ligand, soluble, E. coli-made) YFGKLGSKLSVIRNLNDQVLFIDQGNRPLFEDMTDSDCRDNAPRTIFIISMYKLSTERGMAVTISVKCEKISTLSCENKIISFKEMNPPDGIKDTKSDIIFFQSSVPGHDNKMQFESSSYEGYFLACEKERDLFKLILKKEDELGDRSIMFTVQNED
4.17 nM	0.0262 nm	0.0169 s⁻¹	4.06e+06 M⁻¹ s⁻¹	IL-18 variant polypeptide LM4 (ligand, soluble, E. coli-made) YFPKLKSKLSVIRNLNDQVLFIDQGNRPLFEDMTDSDCRDNAPRTIFIISMYKHSYSRGMAVTISVKCEKISTLSCENKIISFKEMNPPDNIKDTKSDIIFFQRSVPGHDNKMQFESSSYEGYFLACEKERDLFKLILKKEDELGDRSIMFTVQNED
–	< 0.02 nm	–	–	IL-18 variant polypeptide WM2 (ligand, soluble, E. coli-made) YFPKLRSKLSVIRNLNDQVLFIDQGNRPLFEDMTDSDCRDNAPRTIFIISMYKDSQPRGMAVTISVKCEKISTLSCENKIISFKEMNPPDNIKDTESDIIFFQRSVPGHDNKMQFESSSYEGYFLACEKERDLFKLILKKEDELGDRSIMFTVQNED
10.1 nM	0.304 nm	0.00199 s⁻¹	196000 M⁻¹ s⁻¹	IL-18 variant polypeptide WM6 (ligand, soluble, E. coli-made) YFDKLKSKLSVIRNLNDQVLFIDQGNRPLFEDMTDSDCRDNAPRTIFIISMYKDSQPRGMAVTISVKCEKISTLSCENKIISFKEMNPPDSIKDTKSDIIFFQRSVPGHDNKMQFESSSYEGYFLACEKERDLFKLILKKEDELGDRSIMFTVQNED
14.6 nM	0.0422 nm	0.0328 s⁻¹	2.24e+06 M⁻¹ s⁻¹	IL-18 variant polypeptide LM3 (ligand, soluble, E. coli-made) YFPKLRSKLSIIRNLNDQVLFIDQGNRPLFEDMTDSDCRDNAPRTIFIISMYKGSGARGMAVTISVKCEKISTLSCENKIISFKEMNPPDGIKDTKSDIIFFQRSVPGHDNKMQFESSSYEGYFLACEKERDLFKLILKKEDELGDRSIMFTVQNED
37.9 nM	0.0338 nm	0.052 s⁻¹	1.37e+06 M⁻¹ s⁻¹	IL-18 variant polypeptide LM2 (ligand, soluble, E. coli-made) YFPKLRSKLSVIRNLNDQVLFIDQGNRPLFEDMTDSDCRDNAPRTIFIISMYKLSGSRGMAVTISVKCEKISTLSCENKIISFKEMNPPDVIKDTKSDIIFFQRSVPGHDNKMQFESSSYEGYFLACEKERDLFKLILKKEDELGDRSIMFTVQNED
–	< 0.02 nm	–	–	IL-18 variant polypeptide WM8 (ligand, soluble, E. coli-made) YFPKLRSKLSVIRNLNDQVLFIDQGNRPLFEDMTDSDCRDNAPRTIFIISMYKDSQPRGMAVTISVKCEKISTLSCENKIISFKEMNPPDSIKDTKSDIIFFQRSVPGHDNKMQFESSSYEGYFLACEKERDLFKLILKKEDELGDRSIMFTVQNED
9.82 nM	0.0238 nm	0.0375 s⁻¹	3.82e+06 M⁻¹ s⁻¹	IL-18 variant polypeptide MM4 (ligand, soluble, E. coli-made) YFPKLRSKLSVIRNLNDQVLFIDQGNRPLFEDMTDSDCRDNAPRTIFIISMYKLSTIRGMAVTISVKCEKISTLSCENKIISFKEMNPPDGIKDTKSDIIFFQRSVPGHDNKMQFESSSYEGYFLACEKERDLFKLILKKEDELGDRSIMFTVQNED
19.6 nM	0.038 nm	0.0411 s⁻¹	2.1e+06 M⁻¹ s⁻¹	IL-18 variant polypeptide LM5 (ligand, soluble, E. coli-made) YFGKLRSKLSVIRNLNDQVLFIDQGNRPLFEDMTDSDCRDNAPRTIFIISMYKWSSQRGMAVTISVKCEKISTLSCENKIISFKEMNPPDNIKDTKSDIIFFQRSVPGHDNKMQFESSSYEGYFLACEKERDLFKLILKKEDELGDRSIMFTVQNED
12.9 nM	< 0.02 nm	0.007 s⁻¹	543000 M⁻¹ s⁻¹	IL-18 variant polypeptide WM10 (ligand, soluble, E. coli-made) YFPKLKSKLSVIRNLNDQVLFIDQGNRPLFEDMTDSDCRDNAPRTIFIISMYKDSQPRGMAVTISVKCEKISTLSCENKIISFKEMNPPDSIKDTKSDIIFFQRSVPGHDNKMQFESSSYEGYFLACEKERDLFKLILKKEDELGDRSIMFTVQNED

biological target: T2, recombinant hIL-18Rα extracellular …; assay: single-clone FACS, yeast display, 10 nM labelled hIL-18Rα ECD
Experimental: Following the screens described in Example 2, single clone FACS analysis was performed to verify the binding of selected yeast cell surface-expressed IL-18 variant polypeptides from Round 4 and Round 5 to 10 nM hIL-18Rα-ECD. Briefly, each yeast clone at the same density was incubated with 10 nM IL-18Rα-ECD labeled by fluorescent probe, respectively, followed by washing step. Then the ratio of fluorescent positive IL-18Rα ECD binding yeasts in the population of each clone were analyzed.

% of fluorescence positive cells	Binder
93.2%	SEQ ID NO 13 (ligand) YFPKLRSKLSVIRNLNDQVLFIDQGNRPLFEDMTDSDCRDNAPRTIFIISMYKWSKTRGMAVTISVKCEKISTLSCENKIISFKEMNPPDVIKDTKSDIIFFQYSVPGHDNKMQFESSSYEGYFLACEKERDLFKLILKKEDELGDRSIMFTVQNED
95.5%	SEQ ID NO 6 (ligand) YFPKLSSKLSVIRNLNDQVLFIDQGNRPLFEDMTDSDCRDNAPRTIFIISMYKWSPWRGMAVTISVKCEKISTLSCENKIISFKEMNPPDDIKDTKSDIIFFQRSVPGHDNKMQFESSSYEGYFLACEKERDLFKLILKKEDELGDRSIMFTVQNED
93.2%	SEQ ID NO 14 (ligand) YFPKLRSKLSVIRNLNDQVLFIDQGNRPLFEDMTDSDCRDNAPRTIFIISMYKYSTARGMAVTISVKCEKISTLSCENKIISFKEMNPPDVIKDTKSDIIFFQHSVPGHDNKMQFESSSYEGYFLACEKERDLFKLILKKEDELGDRSIMFTVQNED
14.8%	IL-18 variant polypeptide M36 (ligand) YFPKLSSKLSVIRNLNDQVLFIDQGNRPLFEDMTDSDCRDNAPRTIFIISMYKASDQRGMAVTISVKCEKISTLSCENKIISFKEMNPPDGIKDTKSDIIFFQRSVPGHDNKMQFESSSYEGYFLACEKERDLFKLILKKEDELGDRSIMFTVQNED
93%	SEQ ID NO 16 (ligand) YFPKLTSKLSVIRNLNDQVLFIDQGNRPLFEDMTDSDCRDNAPRTIFIISMYKHSTYRGMAVTISVKCEKISTLSCENKIISFKEMNPPDAIKDTKSDIIFFQRSVPGHDNKMQFESSSYEGYFLACEKERDLFKLILKKEDELGDRSIMFTVQKED
95.6%	SEQ ID NO 5 (ligand) YFPKLRSKLSVIRNLNDQVLFIDQGNRPLFEDMTDSDCRDNAPRTIFIISMYKHSTVRGMAVTISVKCEKISTLSCENKIISFKEMNPPDVIKDTKSDIIFFQRSVPGHDNKMQFESSSYEGYFLACEKERDLFKLILKKEDELGDRSIMFTVQNED
94.8%	SEQ ID NO 10 (ligand) YFTKLKSKLSVIRNLNDQVLFIDQGNRPLFEDMTDSDCRDNAPRTIFIISMYKWSSDRGMAVTISVKCEKISTLSCENKIISFKEMNPPDAIKDTKSDIIFFQVSVPGHDNKMQFESSSYEGYFLACEKERDLFKLILKKEDELGDRSIMFTVQNED
73.4%	IL-18 variant polypeptide M8 (ligand) YFPKLRSKLSVIRNLNDQVLFIDQGNRPLFEDMTDSDCRDNAPRTIFIISMYKWSPARGMAVTISVKCEKISTLSCENKIISFKEMNPPDAIKDTKSDIIFFQLSVPGHDNKMQFESSSYEGYFLACEKERDLFKLILKKEDELGDRSIMFTVQNED
79%	IL-18 variant polypeptide M6 (ligand) YFPKLRSKLSVIRNLNDQVLFIDQGNRPLFEDMTDSDCRDNAPRTIFIISMYKWSTPRGMAVTISVKCEKISTLSCENKIISFKEMNPPDVIKDTKSDIIFFQTSVPGHDNKMQFESSSYEGYFLACEKERDLFKLILKKEDELGDRSIMFTVQNED
91.6%	IL-18 variant polypeptide MM1 (ligand) YFPKLKSKLSVIRNLNDQVLFIDQGNRPLFEDMTDSDCRDNAPRTIFIISMYKLSTQRGMAVTISVKCEKISTLSCENKIISFKEMNPPDVIKDTKSDIIFFQRSVPGHDNKMQFESSSYEGYFLACEKERDLFKLILKKEDELGDRSIMFTVQNED
93%	SEQ ID NO 15 (ligand) YFPKLRSKLSVIRNLNDQVLFIDQGNRPLFEDMTDSDCRDNAPRTIFIISMYKSSRGRGMAVTISVKCEKISTLSCENKIISFKEMNPPDVIKDTKSDIIFFQTSVPGHDNKMQFESSSYEGYFLACEKERDLFKLILKKEDELGDRSIMFTVQNED
95.5%	SEQ ID NO 7 (ligand) YFPKLKSKLSVIRNLNDQVLFIDQGNRPLFEDMTDSDCRDNAPRTIFIISMYKHSTVRGMAVTISVKCEKISTLSCENKIISFKEMNPPDVIKDTKSDIIFFQRSVPGHDNKMQFESSSYEGYFLACEKERDLFKLILKKEDELGDRSIMFTVQNED
